Assays:
[1] = target: T1, His-Nectin-4 ECD (human, UniProt Q96NY8); assay: BLI, 26C
T1 chain: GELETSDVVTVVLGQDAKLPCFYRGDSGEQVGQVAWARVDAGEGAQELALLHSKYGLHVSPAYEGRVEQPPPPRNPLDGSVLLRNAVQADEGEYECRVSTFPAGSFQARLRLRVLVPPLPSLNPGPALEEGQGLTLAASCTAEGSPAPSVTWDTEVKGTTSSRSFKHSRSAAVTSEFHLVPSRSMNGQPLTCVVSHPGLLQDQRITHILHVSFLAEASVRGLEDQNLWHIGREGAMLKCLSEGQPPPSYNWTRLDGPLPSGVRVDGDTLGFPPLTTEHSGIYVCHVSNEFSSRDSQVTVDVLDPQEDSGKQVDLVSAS

[2] = target: T2, Fc-Nectin-4 IgV (human, UniProt Q96NY8); assay: BLI, 26C, bivalent analyte
T2 chain: T1 chain

B1: HA22 (Enfortumab) (antibody, V domains shown)
VH: EVQLVESGGGLVQPGGSLRLSCAASGFTFSSYNMNWVRQAPGKGLEWVSYISSSSSTIYYADSVKGRFTISRDNAKNSLSLQMNSLRDEDTAVYYCARAYYYGMDVWGQGTTVTVSS
VL: DIQMTQSPSSVSASVGDRVTITCRASQGISGWLAWYQQKPGKAPKFLIYAASTLQSGVPSRFSGSGSGTDFTLTISSLQPEDFATYYCQQANSFPPTFGGGTKVEIK
Kd [1]: 5.2 nM | Kd [2]: 12.9 nM

From patent publication US20260317410 (published 2026)
